The supplement of paper PMC5998384

Experiments:
HeLa Kyoto [1] = assay: solubility in G1/S (NP-40 vs SDS abundance) (log2 ratio); higher = more soluble; conditions: cell cycle stage: G1/S
HeLa Kyoto [2] = assay: melting temperature (median over replicates), in situ; higher = more thermally stable
HeLa Kyoto [3] = assay: solubility change mitosis vs G1/S (difference of NP-40 vs SDS log2 ratios) (log2 ratio difference); higher = more soluble in mitosis
HeLa Kyoto [4] = assay: thermal stability score vs G1/S (z-score of summed log2 fold changes over temperatures); higher = more thermally stable than in G1/S
[5] = cell cycle stage: early G1 (4.5 h after nocodazole release)
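Throughout, for melting temperature (median over replicates), in situ: HeLa Kyoto cells synchronized by double thymidine or nocodazole block, proteins quantified by TMT10plex mass spectrometry, three independent biological replicates.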
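Throughout, for solubility change mitosis vs G1/S (difference of NP-40 vs SDS log2 ratios): synchronized HeLa Kyoto cells (double thymidine block for G1/S, nocodazole release for mitosis), protein amounts in NP-40 versus SDS lysates quantified by mass spectrometry, three biological replicates.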
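Throughout, for solubility in G1/S (NP-40 vs SDS abundance): HeLa Kyoto cells arrested at G1/S by double thymidine block, proteins quantified by TMT10plex mass spectrometry in mild NP-40 versus SDS extracts, three biological replicates.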
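Throughout, for thermal stability score vs G1/S (z-score of summed log2 fold changes over temperatures): synchronized HeLa Kyoto cells, proteins quantified by TMT10plex mass spectrometry, three biological replicates, mitosis taken 0.5 h after nocodazole release, G1/S directly after double thymidine block.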

Substance	solubility in G1/S (log2) (HeLa Kyoto [1])	melting temperature (HeLa Kyoto [2]; cell cycle stage: G1/S)	melting temperature (HeLa Kyoto [2]; cell cycle stage: mitosis)	solubility change mitosis (log2) (HeLa Kyoto [3])	thermal stability score (HeLa Kyoto [4]; [5])	thermal stability score (HeLa Kyoto [4]; cell cycle stage: mitosis)
MSERKVLNKYYPPDFDPSKIPKLKLPKDRQYVVRLMAPFNMRCKTCGEYIYKGKKFNARKETVQNEVYLGLPIFRFYIKCTRCLAEITFKTDPENTDYTMEHGATRNFQAEKLLEEEEKRVQKEREDEELNNPMKVLENRTKDSKLEMEVLENLQELKDLNQRQAHVDFEAMLRQHRLSEEERRRQQQEEDEQETAALLEEARKRRLLEDSDSEDEAAPSPLQPALRPNPTAILDEAPKPKRKVEVWEQSVGSLGSRPPLSRLVVVKKAKADPDCSNGQPQAAPTPGAPQNRKEANPTPLTPGASSLSQLGAYLDSDDSNGSN [CCDC94]	0.299	51.6 °C	52.3 °C	-0.0138	0.296	0.409
MEGGLGRAVCLLTGASRGFGRTLAPLLASLLSPGSVLVLSARNDEALRQLEAELGAERSGLRVVRVPADLGAEAGLQQLLGALRELPRPKGLQRLLLINNAGSLGDVSKGFVDLSDSTQVNNYWALNLTSMLCLTSSVLKAFPDSPGLNRTVVNISSLCALQPFKGWALYCAGKAARDMLFQVLALEEPNVRVLNYAPGPLDTDMQQLARETSVDPDMRKGLQELKAKGKLVDCKVSAQKLLSLLEKDEFKSGAHVDFYDK [SPR]	0.0864	53.8 °C	52.3 °C	-0.117	-5.72	-2.25
MAAAAVSGALGRAGWRLLQLRCLPVARCRQALVPRAFHASAVGLRSSDEQKQQPPNSFSQQHSETQGAEKPDPESSHSPPRYTDQGGEEEEDYESEEQLQHRILTAALEFVPAHGWTAEAIAEGAQSLGLSSAAASMFGKDGSELILHFVTQCNTRLTRVLEEEQKLVQLGQAEKRKTDQFLRDAVETRLRMLIPYIEHWPRALSILMLPHNIPSSLSLLTSMVDDMWHYAGDQSTDFNWYTRRAMLAAIYNTTELVMMQDSSPDFEDTWRFLENRVNDAMNMGHTAKQVKSTGEALVQGLMGAAVTLKNLTGLNQRR [COQ9]	0.16	51.5 °C	51.8 °C	0.333	-0.112	0.754
SETD2	-0.43	48.1 °C	50.2 °C	0.19	0.914	2.05
BOD1L1	-0.161	56 °C	56 °C	0.0131	-3.05	-3.12
MGLLLMILASAVLGSFLTLLAQFFLLYRRQPEPPADEAARAGEGFRYIKPVPGLLLREYLYGGGRDEEPSGAAPEGGATPTAAPETPAPPTRETCYFLNATILFLFRELRDTALTRRWVTKKIKVEFEELLQTKTAGRLLEGLSLRDVFLGETVPFIKTIRLVRPVVPSATGEPDGPEGEALPAACPEELAFEAEVEYNGGFHLAIDVDLVFGKSAYLFVKLSRVVGRLRLVFTRVPFTHWFFSFVEDPLIDFEVRSQFEGRPMPQLTSIIVNQLKKIIKRKHTLPNYKIRFKPFFPYQTLQGFEEDEEHIHIQQWALTEGRLKVTLLECSRLLIFGSYDREANVHCTLELSSSVWEEKQRSSIKTVELIKGNLQSVGLTLRLVQSTDGYAGHVIIETVAPNSPAAIADLQRGDRLIAIGGVKITSTLQVLKLIKQAGDRVLVYYERPVGQSNQGAVLQDNFGQLEENFLSSSCQSGYEEEAAGLTVDTESRELDSEFEDLASDVRAQNEFKDEAQSLSHSPKRVPTTLSIKPLGAISPVLNRKLAVGSHPLPPKIQSKDGNKPPPLKTSEITDPAQVSKPTQGSAFKPPVPPRPQAKVPLPSADAPNQAEPDVLVEKPEKVVPPPLVDKSAEKQAKNVDAIDDAAAPKQFLAKQEVAKDVTSETSCPTKDSSDDRQTWESSEILYRNKLGKWTRTRASCLFDIEACHRYLNIALWCRDPFKLGGLICLGHVSLKLEDVALGCLATSNTEYLSKLRLEAPSPKAIVTRTALRNLSMQKGFNDKFCYGDITIHFKYLKEGESDHHVVTNVEKEKEPHLVEEVSVLPKEEQFVGQMGLTENKHSFQDTQFQNPTWCDYCKKKVWTKAASQCMFCAYVCHKKCQEKCLAETSVCGATDRRIDRTLKNLRLEGQETLLGLPPRVDAEASKSVNKTTGLTRHIINTSSRLLNLRQVSKTRLSEPGTDLVEPSPKHTPNTSDNEGSDTEVCGPNSPSKRGNSTGIKLVRKEGGLDDSVFIAVKEIGRDLYRGLPTEERIQKLEFMLDKLQNEIDQELEHNNSLVREEKETTDTRKKSLLSAALAKSGERLQALTLLMIHYRAGIEDIETLESLSLDQHSKKISKYTDDTEEDLDNEISQLIDSQPFSSISDDLFGPSESV [PDZD8]	-0.312	51.8 °C	52.2 °C	-0.0986	-1.18	-0.643
